Patent publication US5501962, “Interleuken-3 (IL-3) human/murine hybrid polypeptides and recombinant production of the same” (G. D. Searle & Co., dated 1996)

Tests used:
[1] = molecular target: IL-3 receptor (human) (UniProt P26951)
[2] = molecular target: IL-3 receptor (human) (UniProt P26951); test: competition with iodinated hIL-3 ligand (pMON 5966) on AML 193 1.3.9 cells
[3] = molecular target: T1, IL-3 receptor (human, UniProt P26951); test: as above
T1 sequence: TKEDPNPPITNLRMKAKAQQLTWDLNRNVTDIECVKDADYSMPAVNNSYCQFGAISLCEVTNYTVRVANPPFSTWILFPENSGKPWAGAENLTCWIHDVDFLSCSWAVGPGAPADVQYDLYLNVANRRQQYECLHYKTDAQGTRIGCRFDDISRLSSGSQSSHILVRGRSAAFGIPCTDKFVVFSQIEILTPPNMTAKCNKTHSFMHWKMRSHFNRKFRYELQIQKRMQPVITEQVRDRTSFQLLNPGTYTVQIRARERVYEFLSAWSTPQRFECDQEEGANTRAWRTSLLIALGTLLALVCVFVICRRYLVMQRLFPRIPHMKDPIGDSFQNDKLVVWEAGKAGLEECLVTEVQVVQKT
Experimental: These cells were further selected using biotin conjugated hIL-3 and FITC-avidin for repetitive fluorescence activated cell sorting (FACS) and were designated AML 193 1.3.9. This line was grown in IMDM supplemented with 5% FBS and 40 μM beta-mercaptoethanol and human IL-3 (1 to 4 ng/mL). The HL-60 cell line was obtained from ATCC and grown in RPMI 1640, 10% FBS and 40 μM beta-mercaptoethanol. Ligand for IL-3 receptor assays was derived from an E. coli expression vector encoding full length hIL-3 molecule (amino acids 1 to 133) having a 14 amino acid N-terminal extension. ([…][SEQ ID NO: 119]; designated as pMON 5966, est. MW 16,976). This construct contained two additional tyrosines which were essential for iodination to high-specific radioactivity without loss of biological activity. This ligand was radiolabeled with iodine-125 using an insoluble lactoperoxidase method (®Enzymobeads) and used following HPLC purification. […] Ligand for GM-CSF receptor assays was prepared by radiolabelling native GM-CSF with iodine-125 using the IODO-GEN method (Pierce Chemical) according to manufacturer's specifications.
For IL-3 receptor assays, AML 193 1.3.9 cells were incubated overnight in medium without growth factor. On the day of the assay the cells were washed 3 times with Hanks balanced salt solution, resuspended in assay buffer (IMDM, 5% FBS, 40 μM 2-ME and 0.1% BSA) and counted using a hemacytometer. Assay tubes contained the test compounds or inhibitors under study, 0.2% sodium azide, iodinated hIL-3 ligand (pMON 5966), 5–10×10^6 cells, and buffer in a total volume of 100 μL. Unlabelled hIL-3 (250 nM) was used to define non-specific binding, and each assay point was set up in triplicate. After incubation with gentle orbital agitation at 200 rpm for two hours at room temperature, 1 mL of ice-cold medium was added and the binding reaction was immediately terminated by centrifugation. The supernatant was removed by aspiration, and the tip of the tube containing the cell pellet was cut off and counted in a Micromedic gamma counter.

[4] = molecular target: T1, IL-3 receptor; test: cell-based or functional assay
[5] = molecular target: IL-3 receptor (human) (UniProt P26951); test: competition with iodinated hIL-3 ligand (pMON 5966) on AML 193 1.3.9 cells; this is the reference itself

B1: pMON5980 (Met-Ala-15-125hIL-3) having an M1 substitution (ligand)
chain: MANCSSIVKEIIGKLPQPPLPLLDFNNLNGEDQDILMENNLRRPNLEAFNRAVKSLQNASAIESILKNLLPCLPLATAAPTRHPIHIKDGDWNEFRRKLTFYLKTLENAQAQQ
Growth Factor Activity (AML 193 1.3 proliferation, 3H-thymidine; Relative Biological Activity) (relative to native hIL-3) [1]: 0.03
Leukotriene Stimulating Activity (IL-3 mediated sulfidoleukotriene release from human mononuclear cells; Relative Biological Activity) (relative to native hIL-3) [1]: < 0.01
IL-3 Receptor Binding Activity (relative to native hIL-3) (relative to native hIL-3) [2]: < 0.01

B2: pMON5974 (Met-15-125hIL-3 del aa29-35) having the M2 deletion shown in FIG. 19 (ligand)
chain: MNCSNMIDEIITHLKDFNNLNGEDQDILMENNLRRPNLEAFNRAVKSLQNASAIESILKNLLPCLPLATAAPTRHPIHIKDGDWNEFRRKLTFYLKTLENAQAQQ
IL-3 Receptor Binding Activity (relative to native hIL-3) [3]: ≤ 0.01 relative to native hIL-3
binding result [3]: no binding
Growth Factor Activity (AML 193 1.3 proliferation, 3H-thymidine; Relative Biological Activity) (relative to native hIL-3) [1]: 0.08
Leukotriene Stimulating Activity (IL-3 mediated sulfidoleukotriene release from human mononuclear cells; Relative Biological Activity) (relative to native hIL-3) [1]: < 0.01

B3: pMON5963 (Met-15-125hIL-3 Ala 101) having an M9 substitution (ligand)
chain: MNCSNMIDEIITHLKQPPLPLLDFNNLNGEDQDILMENNLRRPNLEAFNRAVKSLQNASAIKSNLQKLNSCLPLATAAPTRHPIHIKAGDWNEFRRKLTFYLKTLENAQAQQ
Growth Factor Activity (AML 193 1.3 proliferation, 3H-thymidine; Relative Biological Activity) (relative to native hIL-3) [1]: 5.01
Leukotriene Stimulating Activity (IL-3 mediated sulfidoleukotriene release from human mononuclear cells; Relative Biological Activity) (relative to native hIL-3) [1]: 12.9
IL-3 Receptor Binding Activity (relative to native hIL-3) (relative to native hIL-3) [2]: 1.32

B4: pMON5979 (Met-15-125hIL-3 ALA 101) having an M8 substitution (ligand)
chain: MNCSNMIDEIITHLKQPPLPLLDFNNLNGEDQDILMENNLRRPNLEAFNRAVKSLQPEDRYVIESILKNLLPCLPLATAAPTRHPIHIKAGDWNEFRRKLTFYLKTLENAQAQQ
IL-3 Receptor Binding Activity (relative to native hIL-3) [3]: 1.21 relative to native hIL-3
Growth Factor Activity (AML 193 1.3 proliferation, 3H-thymidine; Relative Biological Activity) (relative to native hIL-3) [1]: 7.94
Leukotriene Stimulating Activity (IL-3 mediated sulfidoleukotriene release from human mononuclear cells; Relative Biological Activity) (relative to native hIL-3) [1]: 0.46

B5: pMON5975 (Met-15-125hIL-3) having an M4 substitution (ligand)
chain: MNCSNMIDEIITHLKQPPLPLLDFNNLTDDEGPILMENNLRRPNLEAFNRAVKSLQNASAIESILKNLLPCLPLATAAPTRHPIHIKDGDWNEFRRKLTFYLKTLENAQAQQ
Growth Factor Activity (AML 193 1.3 proliferation, 3H-thymidine; Relative Biological Activity) (relative to native hIL-3) [1]: 0.04
Leukotriene Stimulating Activity (IL-3 mediated sulfidoleukotriene release from human mononuclear cells; Relative Biological Activity) (relative to native hIL-3) [1]: < 0.01
IL-3 Receptor Binding Activity (relative to native hIL-3) (relative to native hIL-3) [2]: < 0.01

B6: pMON5972 (Met-15-125hIL-3) having an M6 substitution (ligand)
chain: MNCSNMIDEIITHLKQPPLPLLDFNNLNGEDQDILMENNFRRVNLSKFVEAVKSLQNASAIESILKNLLPCLPLATAAPTRHPIHIKDGDWNEFRRKLTFYLKTLENAQAQQ
Growth Factor Activity (AML 193 1.3 proliferation, 3H-thymidine; Relative Biological Activity) (relative to native hIL-3) [1]: 0.2
Leukotriene Stimulating Activity (IL-3 mediated sulfidoleukotriene release from human mononuclear cells; Relative Biological Activity) (relative to native hIL-3) [1]: 0.15
IL-3 Receptor Binding Activity (relative to native hIL-3) (relative to native hIL-3) [2]: 0.08

B7: pMON5961 (Met-15-125hIL-3) having an M12 substitution (ligand)
chain: MNCSNMIDEIITHLKQPPLPLLDFNNLNGEDQDILMENNLRRPNLEAFNRAVKSLQNASAIESILKNLLPCLPLATAAPTRHGVFIRDGDWNEFRRKLTFYLKTLENAQAQQ
Growth Factor Activity (AML 193 1.3 proliferation, 3H-thymidine; Relative Biological Activity) (relative to native hIL-3) [1]: 0.5
Leukotriene Stimulating Activity (IL-3 mediated sulfidoleukotriene release from human mononuclear cells; Relative Biological Activity) (relative to native hIL-3) [1]: 3.63
IL-3 Receptor Binding Activity (relative to native hIL-3) (relative to native hIL-3) [2]: 1.05

B8: pMON5960 (Met-15-125hIL-3) having an M11 substitution (ligand)
chain: MNCSNMIDEIITHLKQPPLPLLDFNNLNGEDQDILMENNLRRPNLEAFNRAVKSLQNASAIESILKNLLPCLPLATAASALPPIHIKDGDWNEFRRKLTFYLKTLENAQAQQ
Growth Factor Activity (AML 193 1.3 proliferation, 3H-thymidine; Relative Biological Activity) (relative to native hIL-3) [1]: 0.13
Leukotriene Stimulating Activity (IL-3 mediated sulfidoleukotriene release from human mononuclear cells; Relative Biological Activity) (relative to native hIL-3) [1]: 0.1
IL-3 Receptor Binding Activity (relative to native hIL-3) (relative to native hIL-3) [2]: < 0.01

B9: pMON5973 (Met-15-125hIL-3) having an M7 substitution (ligand)
chain: MNCSNMIDEIITHLKQPPLPLLDFNNLNGEDQDILMENNLRRPNLEAFNRSQGEVDNASAIESILKNLLPCLPLATAAPTRHPIHIKDGDWNEFRRKLTFYLKTLENAQAQQ
Growth Factor Activity (AML 193 1.3 proliferation, 3H-thymidine; Relative Biological Activity) [4]: 0.2 relative to native hIL-3
Leukotriene Stimulating Activity (IL-3 mediated sulfidoleukotriene release from human mononuclear cells; Relative Biological Activity) [4]: ≤ 0.01 relative to native hIL-3

B10: (1-133)hIL-3 (ligand)
chain: APMTQTTSLKTSWVNCSNMIDEIITHLKQPPLPLLDFNNLNGEDQDILMENNLRRPNLEAFNRAVKSLQNASAIESILKNLLPCLPLATAAPTRHPIHIKDGDWNEFRRKLTFYLKTLENAQAQQTTLSLAIF
IL-3 Receptor Binding Activity (relative to native hIL-3) (relative to native hIL-3) [5]: 1
Growth Factor Activity (AML 193 1.3 proliferation, 3H-thymidine; Relative Biological Activity) (relative to native hIL-3) [1]: 1
Leukotriene Stimulating Activity (IL-3 mediated sulfidoleukotriene release from human mononuclear cells; Relative Biological Activity) (relative to native hIL-3) [1]: 1

B11: pMON5977 (Met-15-125hIL-3) having an M3 substitution (ligand)
chain: MNCSNMIDEIITHLKQPPLPLLEPELKNGEDQDILMENNLRRPNLEAFNRAVKSLQNASAIESILKNLLPCLPLATAAPTRHPIHIKDGDWNEFRRKLTFYLKTLENAQAQQ
Growth Factor Activity (AML 193 1.3 proliferation, 3H-thymidine; Relative Biological Activity) (relative to native hIL-3) [1]: 3.98
Leukotriene Stimulating Activity (IL-3 mediated sulfidoleukotriene release from human mononuclear cells; Relative Biological Activity) (relative to native hIL-3) [1]: 0.31
IL-3 Receptor Binding Activity (relative to native hIL-3) (relative to native hIL-3) [2]: 0.19

B12: pMON5970 (Met-15-125hIL-3) having an M5 substitution (ligand)
chain: MNCSNMIDEIITHLKQPPLPLLDFNNLNGEDQDSLRNKSLRRPNLEAFNRAVKSLQNASAIESILKNLLPCLPLATAAPTRHPIHIKDGDWNEFRRKLTFYLKTLENAQAQQ
Growth Factor Activity (AML 193 1.3 proliferation, 3H-thymidine; Relative Biological Activity) (relative to native hIL-3) [1]: 0.04
Leukotriene Stimulating Activity (IL-3 mediated sulfidoleukotriene release from human mononuclear cells; Relative Biological Activity) (relative to native hIL-3) [1]: < 0.01
IL-3 Receptor Binding Activity (relative to native hIL-3) (relative to native hIL-3) [2]: < 0.01

B13: pMON5962 (Met-15-125hIL-3) having an M10 substitution (ligand)
chain: MNCSNMIDEIITHLKQPPLPLLDFNNLNGEDQDILMENNLRRPNLEAFNRAVKSLQNASAIESILKNLLPCLPTSANDPTRHPIHIKDGDWNEFRRKLTFYLKTLENAQAQQ
Growth Factor Activity (AML 193 1.3 proliferation, 3H-thymidine; Relative Biological Activity) (relative to native hIL-3) [1]: 1.26
Leukotriene Stimulating Activity (IL-3 mediated sulfidoleukotriene release from human mononuclear cells; Relative Biological Activity) (relative to native hIL-3) [1]: 10.7
IL-3 Receptor Binding Activity (relative to native hIL-3) (relative to native hIL-3) [2]: 0.81

B14: pMON5968 (Met-15-125hIL-3) having an M13 substitution (ligand)
chain: MNCSNMIDEIITHLKQPPLPLLDFNNLNGEDQDILMENNLRRPNLEAFNRAVKSLQNASAIESILKNLLPCLPLATAAPTRHPIHIKDLDEFRRKLTFYLKTLENAQAQQ
IL-3 Receptor Binding Activity (relative to native hIL-3) [3]: 0.25 relative to native hIL-3
Growth Factor Activity (AML 193 1.3 proliferation, 3H-thymidine; Relative Biological Activity) (relative to native hIL-3) [1]: 0.06
Leukotriene Stimulating Activity (IL-3 mediated sulfidoleukotriene release from human mononuclear cells; Relative Biological Activity) (relative to native hIL-3) [1]: 0.59
